This note sets out measurements from article PMC10033563, “Unique alcohol dehydrogenases involved in algal sugar utilization by marine bacteria” (Applied Microbiology and Biotechnology, 2023).

For orientation: stoichiometry N means the number of molecules, sites or subunits per partner or assembly.

Data set [1] deals with zinc-dependent alcohol dehydrogenase from Zobellia galactanivorans DsijT (Zobellia galactanivorans DsijT). In words: crystal structure; enzyme (25 mg/mL) incubated with 20 mM NAD+ overnight; crystals from 0.1 M Tris-HCl pH 7.5, 0.2 M KCl, 20-22% (w/v) PEG 3350 at 22 °C; tetrameric interfaces analysed by PDBePISA; tetramer as a dimer of dimers.
The target in data set [2] is T1, ZoADH (Zobellia galactanivorans, UniProt G0L712).
T1 construct: gene adhI; codon-optimized synthetic gene in pET28a, N-terminal Strep-tag, E. coli BL21(DE3); homotetramer; 2 Zn per monomer
Kind of data set: X-ray crystal structure. Format: binding. To be noted: co-crystallised with 20 mM NAD+, pH 7.5; Zn2+ bound.

Data set [3] has as its target T2, FoADH (Formosa agariphila, UniProt T2KM87).
T2 construct: gene BN863_21030; full-length from genomic DNA in pET28a, N-terminal Strep-tag, E. coli BL21(DE3); homotetramer; 2 Zn per monomer
T2 sequence (T2KM87 1-370): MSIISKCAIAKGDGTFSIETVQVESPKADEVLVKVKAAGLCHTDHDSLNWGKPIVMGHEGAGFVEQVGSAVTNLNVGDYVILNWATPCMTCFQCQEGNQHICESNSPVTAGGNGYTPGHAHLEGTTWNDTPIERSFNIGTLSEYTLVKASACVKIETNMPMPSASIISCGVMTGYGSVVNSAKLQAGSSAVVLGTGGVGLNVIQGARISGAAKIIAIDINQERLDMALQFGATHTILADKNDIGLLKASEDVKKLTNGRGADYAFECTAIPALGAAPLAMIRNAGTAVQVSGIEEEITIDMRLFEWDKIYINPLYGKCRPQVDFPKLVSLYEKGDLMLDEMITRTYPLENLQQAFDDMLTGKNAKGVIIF
In words: X-ray crystal structure. It counts as binding. To be noted: co-crystallised with 20 mM NAD+, pH 7.5; Zn2+ bound.

Data set [4] concerns the molecule itself. Kind of data set: crystal structure; enzyme (25 mg/mL) incubated with 20 mM NAD+ overnight; crystals from 0.1 M Tris-HCl pH 7.5, 0.2 M KCl, 20-22% (w/v) PEG 3350 at 22 °C; tetrameric interfaces analysed by PDBePISA; tetramer as a dimer of dimers.

T1 sequence (G0L712 entry or part of it): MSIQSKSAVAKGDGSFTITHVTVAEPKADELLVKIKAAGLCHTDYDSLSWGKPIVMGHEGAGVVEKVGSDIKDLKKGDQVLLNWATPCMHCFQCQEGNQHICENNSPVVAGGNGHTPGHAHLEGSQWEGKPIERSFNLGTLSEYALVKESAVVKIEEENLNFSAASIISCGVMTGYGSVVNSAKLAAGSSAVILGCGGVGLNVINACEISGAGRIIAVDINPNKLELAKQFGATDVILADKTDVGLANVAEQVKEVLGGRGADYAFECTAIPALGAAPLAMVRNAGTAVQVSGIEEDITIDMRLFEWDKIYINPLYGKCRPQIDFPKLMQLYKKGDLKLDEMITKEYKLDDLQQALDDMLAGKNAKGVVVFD

Molecule “zinc-dependent alcohol dehydrogenase from Zobellia galactanivorans DsijT (enzyme)” displayed a stoichiometry N in data set [1] of 4.

Regarding `NC(=O)c1ccc[n+]([C@@H]2O[C@H](COP(=O)(O)OP(=O)(O)OC[C@H]3O[C@@H](n4cnc5c(N)ncnc54)[C@H](O)[C@@H]3O)[C@@H](O)[C@H]2O)c1` [NAD^+], the X-ray crystal structure entry in data set [2] was “PDB codes 8H2A (FoADH-NAD) and 8H2B (ZoADH-NAD)”; in data set [3], “deposited in the Protein Data Bank under PDB codes 8H2A (FoADH-NAD)”.

B1: zinc-dependent alcohol dehydrogenase from Formosa agariphila KMM 3901T (enzyme, UniProt T2KM87 1-370, looked up)
chain: MSIISKCAIAKGDGTFSIETVQVESPKADEVLVKVKAAGLCHTDHDSLNWGKPIVMGHEGAGFVEQVGSAVTNLNVGDYVILNWATPCMTCFQCQEGNQHICESNSPVTAGGNGYTPGHAHLEGTTWNDTPIERSFNIGTLSEYTLVKASACVKIETNMPMPSASIISCGVMTGYGSVVNSAKLQAGSSAVVLGTGGVGLNVIQGARISGAAKIIAIDINQERLDMALQFGATHTILADKNDIGLLKASEDVKKLTNGRGADYAFECTAIPALGAAPLAMIRNAGTAVQVSGIEEEITIDMRLFEWDKIYINPLYGKCRPQVDFPKLVSLYEKGDLMLDEMITRTYPLENLQQAFDDMLTGKNAKGVIIF
notes: FoADH, zinc-dependent alcohol dehydrogenase of Formosa agariphila KMM 3901T (DSM-15362), amplified from genomic DNA into pET28a; the printed insert primers run from the ATG to the stop codon (TTA in the reverse primer); Crystallised with NAD+ and two zinc ions; also called FoADH; ADH; source: E. coli BL21 (DE3), purified (Strep-Tactin XT Sepharose, size exclusion chromatography)
As to B1, the “stoichiometry N” value in data set [4] is 4.
